According to patent publication US20220332835A1 (SHANGHAITECH UNIVERSITY, published 2022):
Residue numbers refer to the chain shown, from its start. Each block holds one molecule with its values, some of them ahead of it.

Assays:
[1] = biological target: T1, human CXCR2 (hCXCR2) on cells (human, UniProt P25025 1-360); assay: cell-based or functional assay
T1 sequence (looked up): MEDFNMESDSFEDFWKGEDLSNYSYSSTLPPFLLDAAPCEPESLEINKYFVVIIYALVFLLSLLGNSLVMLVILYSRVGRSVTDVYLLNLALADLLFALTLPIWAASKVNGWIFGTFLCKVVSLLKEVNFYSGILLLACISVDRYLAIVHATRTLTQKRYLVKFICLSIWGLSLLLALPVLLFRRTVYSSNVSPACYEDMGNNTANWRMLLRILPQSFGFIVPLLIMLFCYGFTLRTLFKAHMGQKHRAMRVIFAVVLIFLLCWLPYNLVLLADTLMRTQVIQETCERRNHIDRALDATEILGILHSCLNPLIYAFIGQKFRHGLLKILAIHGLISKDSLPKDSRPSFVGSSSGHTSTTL

[2] = biological target: pepN48 (peptide of the 48 N-terminal extracellular amino acids of human CXCR2) (human); assay: SPR, Biacore
[3] = biological target: hCXCR2-mCherry (human CXCR2 fused with mCherry, on U2OS cells) (human) (UniProt P25025); assay: flow cytometry, U2OS cells with hCXCR2-mCherry (ECD-A axis), antibody staining on the FITC-A axis; other quadrants UL 1.80%, LL 33.80%, LR 18.24%
pepN48Δ9-19 = biological target: T2, pepN48Δ9-19 (human); assay: binding to truncated synthetic peptides (FIG. 9); method not named
T2 construct: pepN48 with residues 9-19 deleted; also called pepN48 lacking 9-19 aa
T2 peptide: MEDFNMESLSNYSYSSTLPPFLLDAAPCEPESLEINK

pepN9-19 = biological target: T3, pepN9-19 (human); assay: as above
T3 construct: Synthetic peptide, residues 9-19 of human CXCR2 (DSFEDFWKGED); also called NT9-19; pep9-19
T3 peptide: DSFEDFWKGED

[4] = biological target: T4, pepN48 (peptide of the 48 N-terminal extracellular amino acids of human CXCR2) (human, biotin labeled on its N-terminus (panning, ELISA, SPR)); assay: SPR, Biacore T200; biotinylated pepN48 on SA chip;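 further: antibodies flowed in HBS-EP+ running buffer over the immobilized antigen at 0.5 to 10 nM, kinetic traces fitted to a protein-protein interaction model to derive constants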
T4 construct: Synthetic; also called N-terminus of CXCR2
T4 peptide: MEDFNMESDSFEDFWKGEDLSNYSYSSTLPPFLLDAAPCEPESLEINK

mCXCR2-mCherry = biological target: T5, mCXCR2-mCherry (mouse, UniProt P35343 1-359); assay: FACS on transfected U2OS cells (also immunofluorescence)
T5 construct: whole, on cells; Overexpressed in U2OS cells; also called CXCR2 of mouse; not shown: mCherry fluorescent tag
T5 sequence (looked up): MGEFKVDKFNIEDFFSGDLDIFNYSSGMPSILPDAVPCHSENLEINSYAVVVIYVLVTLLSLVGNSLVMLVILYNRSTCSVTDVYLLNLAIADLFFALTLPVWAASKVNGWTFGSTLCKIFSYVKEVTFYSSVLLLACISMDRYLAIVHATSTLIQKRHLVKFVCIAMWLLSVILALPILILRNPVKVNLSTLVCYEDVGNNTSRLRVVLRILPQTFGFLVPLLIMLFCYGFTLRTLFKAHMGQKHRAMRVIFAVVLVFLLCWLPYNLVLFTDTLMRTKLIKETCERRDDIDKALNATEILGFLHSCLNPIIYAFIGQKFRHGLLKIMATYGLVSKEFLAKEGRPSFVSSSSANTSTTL

hCXCR1-mCherry = biological target: T6, hCXCR1-mCherry (human, UniProt P25024 1-350); assay: as above
T6 construct: whole, on cells; Overexpressed in U2OS cells; not shown: mCherry fluorescent tag
T6 sequence (looked up): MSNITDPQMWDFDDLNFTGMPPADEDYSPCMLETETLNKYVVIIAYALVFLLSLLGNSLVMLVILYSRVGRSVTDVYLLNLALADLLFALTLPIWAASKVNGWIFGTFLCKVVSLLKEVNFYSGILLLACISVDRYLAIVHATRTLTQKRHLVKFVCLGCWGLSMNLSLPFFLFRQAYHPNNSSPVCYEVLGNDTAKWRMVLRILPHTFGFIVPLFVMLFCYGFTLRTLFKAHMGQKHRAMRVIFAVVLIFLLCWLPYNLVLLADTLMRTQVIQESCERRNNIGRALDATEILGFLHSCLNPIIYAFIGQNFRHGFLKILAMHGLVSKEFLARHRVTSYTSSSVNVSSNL

rbCXCR2-mCherry = biological target: T7, rbCXCR2-mCherry (rabbit, UniProt P35344 1-358); assay: FACS on transfected U2OS cells
T7 construct: whole, on cells; Overexpressed in U2OS cells; also called rabbitCXCR2; CXCR2 of rabbit; not shown: mCherry fluorescent tag
T7 sequence (looked up): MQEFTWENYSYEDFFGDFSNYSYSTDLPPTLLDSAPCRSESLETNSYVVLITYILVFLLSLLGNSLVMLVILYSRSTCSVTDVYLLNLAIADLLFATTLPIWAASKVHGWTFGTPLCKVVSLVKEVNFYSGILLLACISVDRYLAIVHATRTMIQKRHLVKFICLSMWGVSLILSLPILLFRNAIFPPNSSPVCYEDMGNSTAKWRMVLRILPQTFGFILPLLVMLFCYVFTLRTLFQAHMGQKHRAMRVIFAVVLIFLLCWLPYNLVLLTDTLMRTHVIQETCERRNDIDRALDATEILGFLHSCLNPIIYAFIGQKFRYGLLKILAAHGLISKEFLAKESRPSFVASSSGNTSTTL

rCXCR2-mCherry = biological target: T8, rCXCR2-mCherry (rat, UniProt P35407 1-359); assay: FACS on transfected U2OS cells
T8 construct: whole, on cells; Overexpressed in U2OS cells; also called CXCR2 of rat; not shown: mCherry fluorescent tag
T8 sequence (looked up): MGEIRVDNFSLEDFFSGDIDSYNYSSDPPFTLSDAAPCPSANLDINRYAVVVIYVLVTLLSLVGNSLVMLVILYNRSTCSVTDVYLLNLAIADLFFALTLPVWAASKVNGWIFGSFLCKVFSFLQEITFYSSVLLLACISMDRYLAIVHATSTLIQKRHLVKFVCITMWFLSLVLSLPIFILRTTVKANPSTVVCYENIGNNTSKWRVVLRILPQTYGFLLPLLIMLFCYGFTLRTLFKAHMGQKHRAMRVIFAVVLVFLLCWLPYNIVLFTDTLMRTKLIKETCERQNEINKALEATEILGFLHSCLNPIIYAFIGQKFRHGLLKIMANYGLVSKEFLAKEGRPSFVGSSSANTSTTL

[5] = biological target: T4, pepN48 (peptide of the 48 N-terminal …); assay: SPR

Molecule: IL8 (from UniProt P10145 28-99) (ligand)
- β-arrestin recruitment, Tango assay, apparent EC50 [1]: 4.5 nM

B2: abN48 Fab (Fab, V domains shown)
VH: QVQLVQSGAEVKKPGSSVKVSCKASGGTLSSYAISWVRQAPGQGPEWMGWINPNSGGTNYAQKFQGRVTMTRDTSISTAYMELSRLRPDDTAVYYCASGYCSSTSCYDYWGQGTLVTVSS
VL: QAVLTQPSSLSASPGASVSLTCTLRSGINVGAYRIYWYQQKPGSPPQFLLRYKSDSDKQQGSGVPSRFSGSRDASANAGILLISGLRSEDEADYYCAIWHSSAWVFGGGTQLTVLG
notes: also called abN48 (Fab form); Fab form of abN48-IgG1
- binding result (pepN48Δ9-19): no binding
- binding result (pepN9-19): binds

B3: abN48-IgG1 (antibody, V domains shown)
VH: B2 VH
VL: B2 VL
notes: also called full-length abN48
- Kd [4]: 0.78 nM
- koff [4]: 0.00035 s⁻¹
- kon [4]: 350000 M⁻¹ s⁻¹
- binding result (mCXCR2-mCherry): no binding (tested: 2 µg/mL)
- binding result (hCXCR1-mCherry): no binding (tested: 2 µg/mL)
- binding result (rbCXCR2-mCherry): no binding (tested: 2 µg/mL)
- binding result (rCXCR2-mCherry): no binding (tested: 2 µg/mL)
- inhibition of GROα-induced (EC80) β-arrestin recruitment, Tango assay, apparent IC50 [1]: 4.7 nM
- inhibition of GROα-induced (EC90) Ca2+ influx, FLIPR, IC50 [1]: 1000 nM
- inhibition of IL8-induced (EC80) β-arrestin recruitment, Tango assay, apparent IC50 [1]: 2.8 nM
- inhibition of IL8-induced (EC90) Ca2+ influx, FLIPR, IC50 [1]: 190 nM

B5: abN48-3 (antibody, V domains shown)
VH: B2 VH with S103F, T104A, S105I, Y107F, Y109S
VL: B2 VL
notes: format as tested not clearly stated
- Kd [4]: 0.63 nM
- koff [4]: 0.00016 s⁻¹
- kon [4]: 360000 M⁻¹ s⁻¹

B7: abN48-2 Fab (Fab, V domains shown)
VH: B2 VH with S103R, S105R
VL: B2 VL
notes: Made as abN48 Fab ('following a similar protocol'); also called abN48-2 (Fab form); Fab form of abN48-2-IgG2 (so in the source)
- binding result (pepN48Δ9-19): no binding
- binding result (pepN9-19): binds

B11: abN48-1 (antibody, V domains shown)
VH: B2 VH with Y100F, S102T, S103R, S105I, Y107F, D108V
VL: B2 VL
notes: Format as tested not clearly stated (sub-cloned to pFuse vector, expressed in HEK293T)
- Kd [4]: 0.26 nM
- koff [4]: 6.4e-05 s⁻¹
- kon [4]: 250000 M⁻¹ s⁻¹

B12: abN48-5 (antibody, V domains shown)
VH: B2 VH with S103R, T104F, S105N, Y107K
VL: B2 VL
notes: as for B5
- Kd [4]: ≤ 0.0012 nM
- koff [4]: ≤ 1e-06 s⁻¹
- kon [4]: 810000 M⁻¹ s⁻¹

Results, then the molecule that gave them:

- β-arrestin recruitment, Tango assay, apparent EC50 [1]: 5.3 nM
Molecule: GROα (CXCL1) (from UniProt P09341 35-107) (ligand)

- Kd [2]: 2.6 nM
- percent of cells in quadrant Q1-UR (FITC-A high and ECD-A high) [3]: 46.2%
B1: H8 (abN48) scFv combinatorial antibody (scFv, part only; not given: linker, domain order, IgG1 Fc, V domains shown, not shown: another chain or arm of the molecule; a dimerising Fc or GST; small tags and cut ends)
VH: B2 VH
VL: QAVLTQPSSLSASPGASVSLTCTLRSGINVGAYRIYWYQQKPGSPPQFLLRYKSDSDKQQGSGVPSRFSGSRDASANAGILLISGLRSEDEADYYCAIWHSSAWVFGGGTQLTVL

- Kd [4]: 0.012 nM
- koff [4]: 0.00015 s⁻¹
- kon [4]: 1.3e+07 M⁻¹ s⁻¹
B4: abN48-7 (antibody, V domains shown)
VH: B2 VH with S102G, S103R, T104A, S105R, Y107T, D108S, Y109F
VL: B2 VL
notes: as for B5

- Kd [4]: 0.016 nM
- koff [4]: 2e-05 s⁻¹
- kon [4]: 1.2e+06 M⁻¹ s⁻¹
B6: abN48-8 (antibody, V domains shown)
VH: B2 VH with S103R, T104S, S105R
VL: B2 VL
notes: as for B5

- Kd [4]: 0.0072 nM
- binding result (mCXCR2-mCherry): no binding (tested: 2 µg/mL)
- binding result (hCXCR1-mCherry): no binding (tested: 2 µg/mL)
- binding result (rbCXCR2-mCherry): no binding (tested: 2 µg/mL)
- binding result (rCXCR2-mCherry): no binding (tested: 2 µg/mL)
- inhibition of GROα-induced (EC80) β-arrestin recruitment, Tango assay, apparent IC50 [1]: 0.37 nM
- inhibition of GROα-induced (EC90) Ca2+ influx, FLIPR, IC50 [1]: 110 nM
- inhibition of IL8-induced (EC80) β-arrestin recruitment, Tango assay, apparent IC50 [1]: 0.9 nM
- inhibition of IL8-induced (EC90) Ca2+ influx, FLIPR, IC50 [1]: 44 nM
- partial agonist effect on Ca2+ influx, FLIPR, apparent EC50 [1]: 310 nM
- fold improvement of KD against abN48-IgG1 [5]: 100 fold
B8: abN48-2-IgG1 (antibody, V domains shown)
VH: B2 VH with S103R, S105R
VL: B2 VL
notes: Full-length human IgG1, lambda light chain; also called ab48-2-IgG1; abN48-2-IgG2 (as misprinted)

- Kd [4]: 0.21 nM
- koff [4]: 1.8e-05 s⁻¹
- kon [4]: 85000 M⁻¹ s⁻¹
B9: abN48-6 (antibody, V domains shown)
VH: B2 VH with S103P, T104S, S105G, D108V
VL: B2 VL
notes: as for B5

- Kd [4]: 0.031 nM
- koff [4]: 1.6e-05 s⁻¹
- kon [4]: 520000 M⁻¹ s⁻¹
B10: abN48-4 (antibody, V domains shown)
VH: B2 VH with S102N, S103R, S105R, Y109H
VL: B2 VL
notes: as for B5
